Test results taken from publication PMC4409870.

Biological target: GST-tagged βI spectrin N-terminal fragment, residues 1 to 301 (UniProt P11277)
Assay: pull-down

UniProt P11277, sequence (P11277 1-301): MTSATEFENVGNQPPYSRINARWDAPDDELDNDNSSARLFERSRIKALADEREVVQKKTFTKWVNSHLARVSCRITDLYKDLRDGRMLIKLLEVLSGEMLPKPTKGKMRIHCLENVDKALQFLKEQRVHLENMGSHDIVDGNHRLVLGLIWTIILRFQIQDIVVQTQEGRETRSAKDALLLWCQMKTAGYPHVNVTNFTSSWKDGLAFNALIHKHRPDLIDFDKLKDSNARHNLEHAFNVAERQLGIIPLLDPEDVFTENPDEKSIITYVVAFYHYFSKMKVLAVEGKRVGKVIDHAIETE

Substance | reduction of binding against the unphosphorylated protein
His-tagged 4.1R-S312A, phosphorylated in vitro by the catalytic subunit of PKC (natural protein) | 30%
His-tagged 4.1R-S331A, phosphorylated in vitro by the catalytic subunit of PKC (natural protein) | 30%
